Where a chain is given by its changes, count along the chain named.
B1: hu36 (antibody, V domains shown)
VH: QVQLVQSGAEVKKPGASVKVSCKASGYTFIDFNMHWVRQAPGQRLEWMGYIYPYNGDVVYNQNFTNRVTLTVDTSSSTAYMELSSLRSEDTAVYYCAREGLGGYWGQGTLVTVSS
VL: DVQLTQSPSFLSASVGDRVTITCQASQNIDGNTYMNWYQQKPGKAPKVLIYSIFNLESGVPSRFSGSGSGTEFTLTISSLQPEDFATYYCQQSNDYPYTFGQGTKLEIK
notes: 1F5 HC-1/2B8 LC2-2
B2: hu26 (antibody, V domains shown)
VH: B1 VH with I30T, F32Y, Y52F, D57V, V58A, Q62R, N63K, T65R, N66S
VL: DIQLTQSPSSLSASVGDRVTITCKASQNIDYGGYSYMNWYQQKPGKAPKVLIYSVFNLESGVPSRFSGSGSGTDFTLTISSLQPEDFATYYCQQSNEAPYTFGQGTKLEIK
notes: 1B2 HC-2/3H10 LC2-2
B3: hu21 (antibody, V domains shown)
VH: B1 VH with I30T, F32Y, Y52F, D57V, V58A, Q62R, N63K, T65R, N66S
VL: DIVLTQSPDSLAVSLGERATINCKASQNIDFDGYAYMNWYQHKPGQPPKVLIYSVFNLESGVPDRFSGSGSGTDFTLTISSLQAEDVAVYYCQQSHEVPYTFGQGTKLEIK
notes: 1B2 HC-2/1F5 LC1-4
B4: hu25 (antibody, V domains shown)
VH: B1 VH with I30T, F32Y, Y52F, D57V, V58A, Q62R, N63K, T65R, N66S
VL: B3 VL with F31Y, D32G, A35S, H42Q, H96N, V98A
notes: 1B2 HC-2/3H10 LC2-1
B5: hu88 (antibody, V domains shown)
VH: B1 VH with G56A, N63D
VL: B1 VL
notes: 1F5 HC-5/2B8 LC2-2
B6: hu101 (antibody, V domains shown)
VH: B1 VH with I30T, F32Y, I51V, D57G, V58S, V59A, N63K, T65K, N66S
VL: B1 VL
notes: 2A2 HC-1/2B8 LC2-2
B7: hu140 (antibody, V domains shown)
VH: QVQLVQSGAEVKKPGASVKVSCKASGYTFTDYNMHWVRQAPGQGLEWMGNIYPYNAGTVYNQKFNNRVTLTVDTSSSTAYMELSRLRSDDTAVYYCAREGLGGYWGQGTLVTVSS
VL: B1 VL
notes: 2B8 HC1-3/2B8 LC2-2
B8: hu166 (antibody, V domains shown)
VH: B1 VH with I30T, F32Y, Y52S, D57G, V58T, V59A, N63K, T65K, N66F
VL: B1 VL
notes: 3E5 HC-2/2B8 LC2-2
B9: hu205 (antibody, V domains shown)
VH: B7 VH with N50Y, A56G, G57H, N65R, L70M, S84R, R85S, R98K
VL: B1 VL
notes: 3H10 HC-1/2B8 LC2-2
B10: hu114 (antibody, V domains shown)
VH: B7 VH with A56G
VL: B1 VL
notes: 2B8 HC1-1/2B8 LC2-2
B11: hu179 (antibody, V domains shown)
VH: B7 VH with N50Y, Y52S, A56G, V59A, N65K, N66F, A92V
VL: B1 VL
notes: 3E5 HC-3/2B8 LC2-2
B12: hu192 (antibody, V domains shown)
VH: B7 VH with A24T, G44R, N50Y, Y52S, V59A, N65K, N66F, R85S, D89E
VL: B1 VL
notes: 3E5 HC-4/2B8 LC2-2
B13: hu49 (antibody, V domains shown)
VH: B1 VH with I30T
VL: B1 VL
notes: 1F5 HC-2/2B8 LC2-2
B14: hu127 (antibody, V domains shown)
VH: B7 VH with A56G, S84R, R85S
VL: B1 VL
notes: 2B8 HC1-2/2B8 LC2-2
B15: hu153 (antibody, V domains shown)
VH: B1 VH with A24T, I30T, F32Y, Y52S, D57G, V58T, V59A, N63K, T65K, N66F
VL: B1 VL
notes: 3E5 HC-1/2B8 LC2-2
B16: hu62 (antibody, V domains shown)
VH: B1 VH with I30T, R44G, S84R, E89D
VL: B1 VL
notes: 1F5 HC-3/2B8 LC2-2

Molecular target: T1, Biotin-huCGRPaSA (human, not fully specified; biotin (position not given))
T1 construct: exact construct ('aSA') not explained; also called Biotin CGRPaSA; full-length (1-37) CGRP
T1 peptide: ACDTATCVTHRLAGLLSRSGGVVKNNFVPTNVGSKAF
Test: ELISA, supernatant; relative to chimeric C245
Summary of the method: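 Plates coated with biotin-CGRPaSA at 1.0 μg/mL (90 min, 37°C) and blocked with 2% BSA. Humanized antibodies and chimeric C245 reference, 2.5-fold serial dilutions from 1000 ng/mL, bound 60 min at 37°C. Detection by HRP anti-human IgG (Fc), TMB 15 min, read at 450/620 nm.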

Row | Binder | Relative binding activity, % [%]
1 | B1 | 40
2 | B2 | 20
3 | B3 | 33
4 | B4 | 66
5 | B5 | 93
6 | B6 | 48
7 | B7 | 47
8 | B8 | 19
9 | B9 | 26
10 | B10 | 41
11 | B11 | 77
12 | B12 | 15
13 | B13 | 60
14 | B14 | 24
15 | B15 | 56
16 | B16 | 15

Reference: patent US20260125454A1 (SHANGHAI JUNSHI BIOSCIENCES, published 2026)
